The target in assay [1] is T1, Anti-PSMA Fab (SEQ ID NOs: 19, 20).
T1 construct: Biotinylated PSMA Fab captured on neutravidin coated plates in the phage ELISA; also called 006 PSMA Fab
Description: phage ELISA; biotinylated PSMA Fab on neutravidin plate, bound phage detected with anti-M13-HRP.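 Further: crude clonal phage supernatants added, without a wash, to wells pretreated with PSMA antigen in blocking buffer or with blocking buffer only, then briefly incubated.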 In general terms: In an ELISA, binding on a coated surface is turned into a signal by an enzyme label.
Description: (§1) Clonal phage were harvested as crude supernatants and screened via standard ELISAs. […] Prior to the addition of clonal phage. wells were incubated with blocking buffer and PSMA antigen or blocking buffer alone. Without washing or aspirating, clonal phage supernatants were then added to the wells and incubated for a short time. Wells were then washed followed by detection of bound phage using a horse radish conjugated anti-M13 antibody.

The target is the same in assay [2]. As to the kind of experiment: phage ELISA on captured PSMA Fab, wells pre-incubated with the competitor PSMA antigen.
Description: as §1
The target of assay [3] is T2, Anti-PSMA Fab (SEQ ID NOs: 19, 20).
T2 construct: Biotinylated and captured on neutravidin coated plates in the phage ELISA; also called 006 PSMA Fab
As to the kind of experiment: phage binding ELISA; biotinylated PSMA Fab on neutravidin plates, clonal phage supernatant, anti-M13 HRP detection.
Description: as §1

The target is the same in assay [4]. As to the kind of experiment: phage binding ELISA; Fab-coated wells pre-incubated with PSMA antigen as competitor, anti-M13 HRP detection.
Description: as §1
Assay [5] concerns the target T3, Anti-PSMA Fab (SEQ ID NOs: 19, 20).
T3 construct: In the phage ELISA the PSMA Fab was biotinylated and captured on neutravidin coated plates; also called 006 PSMA Fab
Description: phage binding ELISA; PSMA Fab on plate pre-incubated with PSMA antigen as competitor, anti-M13 HRP detection.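 Further: crude clonal phage supernatants added without washing to wells preincubated with PSMA in blocking buffer, compared with wells receiving blocking buffer only, then bound phage detected.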
Description: as §1

The target is the same in assay [6]. Description: phage binding ELISA; biotinylated PSMA Fab on neutravidin plate, clonal phage supernatant, anti-M13 HRP detection.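 Further: wells were preincubated with blocking buffer either containing PSMA antigen or without it before crude phage supernatant was added, briefly incubated, then washed prior to detection.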
Description: as §1
The target of assay [7] is T4, Anti-PSMA Fab (SEQ ID NOs: 19, 20).
T4 construct: Biotinylated and captured on neutravidin coated plates in the phage ELISA; also called 006 PSMA Fab
As to the kind of experiment: phage binding ELISA; biotinylated PSMA Fab on neutravidin plate, bound phage detected with anti-M13-HRP.
Description: as §1

The target is the same in assay [8]. As to the kind of experiment: phage binding ELISA; PSMA Fab on plate pre-incubated with PSMA antigen as competitor, anti-M13-HRP detection.
Description: as §1

Where no end group is shown, it is not given here.

B1: Phage-2059 (peptide)
peptide: DTMRCVPEWMCTGF
notes: tested as crude clonal phage supernatant
In the case of B1, the “Anti-PSMA Fab signal (phage binding ELISA)” value in assay [1] was determined as 1.77. Also, the “Anti-PSMA Fab signal in the presence of PSMA (phage binding ELISA)” value in assay [2] turned out to be 0.066.

B2: Phage-2067 (peptide)
peptide: PVKWCIPSWMCSVD
notes: as for B1
As to B2, in assay [1], the “Anti-PSMA Fab signal (phage binding ELISA)” value worked out at 1.76. Further, the “Anti-PSMA Fab signal in the presence of PSMA (phage binding ELISA)” value in assay [2] was found to be 0.0738.

B3: Phage-2063 (peptide)
peptide: PIKLCTPSWMCIGF
notes: as for B1
As for B3, the “Anti-PSMA Fab signal (phage binding ELISA)” value in assay [1] stood at 1.77. Besides, the “Anti-PSMA Fab signal in the presence of PSMA (phage binding ELISA)” value in assay [2] came out at 0.107.
As for APKLCIPNWMCVSM (tested as clonal phage supernatant) [Phage-2055], in assay [3], the “Anti-PSMA Fab signal” value was determined as 1.77. Further, in assay [4], the “Anti-PSMA Fab signal in the presence of PSMA” value is 0.0746.
In the same order, the values of VVHWCIPEWMCERI (tested as clonal phage supernatant) [Phage-2053] are 1.78 and 0.098.

B4: Phage-2058 (peptide)
peptide: AWKSCIPSWMCEVQ
notes: as for B1
As for B4, the “Anti-PSMA Fab signal (phage binding ELISA)” value in assay [1] stood at 1.77. The “Anti-PSMA Fab signal in the presence of PSMA (phage binding ELISA)” value in assay [2] came to 0.0942.
For WLNWCTPEWMCNGF (tested as clonal phage supernatant) [Phage-2056], the “Anti-PSMA Fab signal” value in assay [3] turned out to be 1.77. Besides, the “Anti-PSMA Fab signal in the presence of PSMA” value in assay [4] stood at 0.147.

B5: Phage-2048 (peptide)
peptide: VAKWCTPPWMCAWL
modifications: cysteine pairing not given here; also: fused to phage pIII, pIII sequence and linker not given here
notes: tested as clonal phage supernatant
On to B5, for which the “Anti-PSMA Fab signal” value in assay [3] is 1.78. For the same molecule, the “Anti-PSMA Fab signal in the presence of PSMA” value in assay [4] worked out at 0.197.

B6: Phage-2069 (peptide)
peptide: YDHWCTPMWMCHGM
notes: as for B1
As for B6, the “Anti-PSMA Fab signal (phage binding ELISA)” value in assay [1] is 1.76. In addition, the “Anti-PSMA Fab signal in the presence of PSMA (phage binding ELISA)” value in assay [2] amounted to 0.0688.
Consider FPQWCIPIWMCEHT (tested as clonal phage supernatant) [Phage-2052], for which, in assay [3], the “Anti-PSMA Fab signal” value was determined as 1.78. For the same molecule, the “Anti-PSMA Fab signal in the presence of PSMA” value in assay [4] was 0.065.

B7: Phage-2072 (peptide-180 library clone, SEQ ID NO: 2388) (peptide)
peptide: QGNWCKPAWMCSGF
modifications: cysteine pairing not given here; also: fused to phage pIII, pIII sequence and linker not given here
notes: Tested as clonal phage supernatant; not shown: pIII filament protein of the bacteriophage to which the peptide is fused for display
As to B7, the “Anti-PSMA Fab signal in the presence of PSMA” value in assay [5] stood at 0.0983. Also, in assay [6], the “Anti-PSMA Fab (SEQ ID NOs: 19, 20) signal” value was 1.76.

B8: Phage-2070 (peptide)
peptide: FEMWCTPSWMCDGF
notes: as for B1
With B8, the “Anti-PSMA Fab signal (phage binding ELISA)” value in assay [1] turned out to be 1.76. Besides, in assay [2], the “Anti-PSMA Fab signal in the presence of PSMA (phage binding ELISA)” value turned out to be 0.0932.
As for EVHRCIPAWMCTTP (tested as clonal phage supernatant) [Phage-2046], the “Anti-PSMA Fab signal” value in assay [3] was found to be 1.79. Further, in assay [4], the “Anti-PSMA Fab signal in the presence of PSMA” value is 0.0934.
In the same order, the values of VPKWCTPSWMCEST (tested as clonal phage supernatant) [Phage-2043] are 1.79 and 0.0787.
For VHKWCIPSWMCEAP [Phage-2040], the “Anti-PSMA Fab (SEQ ID NOs: 19, 20) signal” value in assay [7] is 1.79. Further, the “Anti-PSMA Fab signal in the presence of PSMA” value in assay [8] is 0.0914.

B9: Phage-2065 (peptide)
peptide: AAKMCVPWWMCEVM
notes: as for B1
Turning to B9, the “Anti-PSMA Fab signal (phage binding ELISA)” value in assay [1] was determined as 1.77. In addition, the “Anti-PSMA Fab signal in the presence of PSMA (phage binding ELISA)” value in assay [2] worked out at 0.0753.
Regarding QMKWCTPEWMCVGM [Phage-2041], the “Anti-PSMA Fab (SEQ ID NOs: 19, 20) signal” value in assay [7] amounted to 1.79. The “Anti-PSMA Fab signal in the presence of PSMA” value in assay [8] amounted to 0.0767.

B10: Phage-2073 (peptide-180 library clone, SEQ ID NO: 2389) (peptide)
peptide: VAKMCIPSWMCAEQ
modifications: cysteine pairing not given here; also: fused to phage pIII, pIII sequence and linker not given here
notes: as for B7
As for B10, the “Anti-PSMA Fab signal in the presence of PSMA” value in assay [5] is 0.0548. Further, the “Anti-PSMA Fab (SEQ ID NOs: 19, 20) signal” value in assay [6] is 1.76.

B11: Phage-2062 (peptide)
peptide: EGKWCTPIWMCQGF
notes: as for B1
As to B11, the “Anti-PSMA Fab signal (phage binding ELISA)” value in assay [1] came to 1.77. Besides, the “Anti-PSMA Fab signal in the presence of PSMA (phage binding ELISA)” value in assay [2] stood at 0.143.

B12: Phage-2061 (peptide)
peptide: EMKWCIPAWMCQSH
notes: as for B1
B12: in assay [1], the “Anti-PSMA Fab signal (phage binding ELISA)” value is 1.77. Also, the “Anti-PSMA Fab signal in the presence of PSMA (phage binding ELISA)” value in assay [2] worked out at 0.0858.

B13: Phage-2064 (peptide)
peptide: YLHSCTPAWMCTGF
notes: as for B1
With B13, in assay [1], the “Anti-PSMA Fab signal (phage binding ELISA)” value amounted to 1.77. For the same molecule, the “Anti-PSMA Fab signal in the presence of PSMA (phage binding ELISA)” value in assay [2] was found to be 0.0668.
For IDKWCIPMWMCEMS (tested as clonal phage supernatant) [Phage-2045], the “Anti-PSMA Fab signal” value in assay [3] stood at 1.79. For the same molecule, the “Anti-PSMA Fab signal in the presence of PSMA” value in assay [4] amounted to 0.0708.
Regarding VDKWCIPQWMCDDQ (tested as clonal phage supernatant) [Phage-2054], the “Anti-PSMA Fab signal” value in assay [3] stood at 1.77. The “Anti-PSMA Fab signal in the presence of PSMA” value in assay [4] is 0.116.
For VMPWCIPQWMCVGE (tested as clonal phage supernatant) [Phage-2049], in assay [3], the “Anti-PSMA Fab signal” value was found to be 1.78. For the same molecule, the “Anti-PSMA Fab signal in the presence of PSMA” value in assay [4] turned out to be 0.0873.

B14: Phage-2071 (peptide)
peptide: IGPWCIPPWMCDHR
notes: as for B1
For B14, the “Anti-PSMA Fab signal (phage binding ELISA)” value in assay [1] is 1.76. In addition, the “Anti-PSMA Fab signal in the presence of PSMA (phage binding ELISA)” value in assay [2] was 0.0893.
VDHWCTPAWMCDGF (tested as clonal phage supernatant) [Phage-2047]: in assay [3], the “Anti-PSMA Fab signal” value was 1.78. The “Anti-PSMA Fab signal in the presence of PSMA” value in assay [4] amounted to 0.106.

B15: Phage-2038 (peptide)
peptide: MERWCKPAWMCADM
modifications: cysteine pairing not given here; also: fused to phage pIII, pIII sequence and linker not given here
As for B15, in assay [7], the “Anti-PSMA Fab (SEQ ID NOs: 19, 20) signal” value is 1.8. For the same molecule, in assay [8], the “Anti-PSMA Fab signal in the presence of PSMA” value was determined as 0.0809.

B16: Phage-2066 (peptide)
peptide: VSIMCKPMWMCSGT
notes: as for B1
Consider B16, for which the “Anti-PSMA Fab signal (phage binding ELISA)” value in assay [1] is 1.77. In addition, the “Anti-PSMA Fab signal in the presence of PSMA (phage binding ELISA)” value in assay [2] was 0.072.

B17: Phage-2057 (peptide)
peptide: VEKWCTPPWMCSLF
notes: as for B1
Regarding B17, the “Anti-PSMA Fab signal (phage binding ELISA)” value in assay [1] worked out at 1.77. Besides, in assay [2], the “Anti-PSMA Fab signal in the presence of PSMA (phage binding ELISA)” value was found to be 0.1.
Consider DLPWCIPAWMCMGL [Phage-2039], for which the “Anti-PSMA Fab (SEQ ID NOs: 19, 20) signal” value in assay [7] worked out at 1.8. The “Anti-PSMA Fab signal in the presence of PSMA” value in assay [8] was 0.0665.

B18: Phage-2044 (peptide)
peptide: EVKWCTPEWMCAFL
modifications: cysteine pairing not given here; also: fused to phage pIII, pIII sequence and linker not given here
notes: as for B5
B18: in assay [3], the “Anti-PSMA Fab signal” value amounted to 1.79. Besides, in assay [4], the “Anti-PSMA Fab signal in the presence of PSMA” value was found to be 0.0578.

B19: Phage-2068 (peptide)
peptide: SEKWCIPDWMCQVW
notes: as for B1
As for B19, in assay [1], the “Anti-PSMA Fab signal (phage binding ELISA)” value stood at 1.76. In addition, the “Anti-PSMA Fab signal in the presence of PSMA (phage binding ELISA)” value in assay [2] was determined as 0.0929.

B20: Phage-2060 (peptide)
peptide: EHIWCKPDWMCSGF
notes: as for B1
Consider B20, for which the “Anti-PSMA Fab signal (phage binding ELISA)” value in assay [1] was found to be 1.77. Also, in assay [2], the “Anti-PSMA Fab signal in the presence of PSMA (phage binding ELISA)” value was 0.0871.
For MDHWCTPPWMCEGW (tested as clonal phage supernatant) [Phage-2042], the “Anti-PSMA Fab signal” value in assay [3] stood at 1.79. In addition, the “Anti-PSMA Fab signal in the presence of PSMA” value in assay [4] worked out at 0.0642.
For the molecule EAIWCVPKWMCEGM (tested as clonal phage supernatant) [Phage-2050], the “Anti-PSMA Fab signal” value in assay [3] was found to be 1.78. Further, the “Anti-PSMA Fab signal in the presence of PSMA” value in assay [4] stood at 0.0786.

B21: Phage-2074 (peptide-180 library clone, SEQ ID NO: 2390) (peptide)
peptide: VGNWCKPAWMCEMM
notes: as for B7
On to B21, for which the “Anti-PSMA Fab signal in the presence of PSMA” value in assay [5] was 0.0681. Moreover, in assay [6], the “Anti-PSMA Fab (SEQ ID NOs: 19, 20) signal” value was found to be 1.76.
As to VPKWCTPAWMCNWN (tested as clonal phage supernatant) [Phage-2051], the “Anti-PSMA Fab signal” value in assay [3] was 1.78. Moreover, the “Anti-PSMA Fab signal in the presence of PSMA” value in assay [4] is 0.12.

These data come from US20260242478A1 (published 2026).
